Assay results reported in patent publication US20120052069A1.

target: β-Klotho overexpressed in recombinant human 293T kidney cells; experiment: cell-based or functional assay

Row | EC50 (nM), ELK luciferase assay | Efficacy, ELK luciferase assay | Substance
1 | 167 nM | 63.9% | hFc-(L15)-hFGF21(1-178, L98R, P171G) (Fc fusion)
2 | 2.66 nM | 73.5% | hFc-(L15)-hFGF21(L98R, P171G, S181A) (Fc fusion)
3 | 33.8 nM | 79.5% | hFc-(L15)-hFGF21(L98R, P171G, S181P) (Fc fusion)
4 | 3.43 nM | 77.3% | hFc-(L15)-hFGF21(L98R, P171G, S181G) (Fc fusion)
5 | 617 nM | 77.1% | hFc-(L15)-hFGF21(L98R, P171G, A180P) (Fc fusion)
6 | 272 nM | 69.9% | hFc-(L15)-hFGF21(L98R, P171G, S181P, P182) (Fc fusion)
7 | 130 nM | 87.9% | hFc-(L15)-hFGF21(L98R, P171G, S181K) (Fc fusion)
8 | 834 nM | 83.1% | MKEDD-hFGF21-(L15)-hFc (Fc fusion)
9 | 61 nM | 82.6% | hFc-(L15)-hFGF21(L98R, P171G, Y179G) (Fc fusion)
10 | 3.07 nM | 77.6% | hFc-(L15)-hFGF21(L98R, P171G, S181T) (Fc fusion)
11 | 4310 nM | 99.7% | hFc-(L15)-hFGF21(L98R, P171G, GGGGG182-6) (Fc fusion)
12 | 7.8 nM | 77.4% | hFc-(L15)-hFGF21(L98R, P171G, 1-179) (Fc fusion)
13 | 428 nM | 44.4% | hFc-(L15)-hFGF21(L98R, P171G, Y179P) (Fc fusion)
14 | 3.46 nM | 72.6% | hFc-(L15)-hFGF21(L98R, P171G, S181L) (Fc fusion)
